The source of these data is US20050037969A1 (ARBOR VITA, published 2005).

B1: CD5 C-terminal peptide AA49L (peptide)
peptide: Biotin-SMQPDNSSDSDYDLHGAQRL
notes: Only the last four residues are seen in the excerpts
B2: CC CKR-3 C-terminal peptide AA43L (peptide)
peptide: Biotin-LERTSSVSPSTAEPELSIVF
notes: as for B1

Ends that are not written are not given here. * marks the point of attachment. Biotin = O=C1N[C@H]2[C@H](CS[C@H]2CCCCC(=O)*)N1

T14 sequence (Q13009 other isoform, or with tags, fused parts or gaps): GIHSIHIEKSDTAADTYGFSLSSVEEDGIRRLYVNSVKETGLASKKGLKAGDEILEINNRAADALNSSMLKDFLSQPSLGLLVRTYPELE

The first test concerns the target T1, ConEn PDZ-GST fusion protein (Homo sapiens (Human), UniProt Q969H4 193-287).
T1 construct: The label ConEn is not explained in the excerpts
T1 sequence: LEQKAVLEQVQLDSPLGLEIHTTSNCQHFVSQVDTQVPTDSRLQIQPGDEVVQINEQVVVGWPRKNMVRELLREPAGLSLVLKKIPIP
The test is described as follows: A/G assays.
With B1, the binding result is recorded as “no binding”.

With B2, the binding result was “no binding”.

Consider Biotin-QATSENGHSARQHVVADTEL [CD34 C-terminal peptide AA7L, biotinylated], for which the binding result is given as “no binding”.

In another test the target is T2, PICK1 PDZ-GST fusion protein (Bos taurus (Bovine), UniProt Q2T9M1 17-105).
T2 construct: Order of GST and PDZ part and limits not seen in the excerpts
T2 sequence (Q2T9M1 other isoform, or with tags, fused parts or gaps limits assumed): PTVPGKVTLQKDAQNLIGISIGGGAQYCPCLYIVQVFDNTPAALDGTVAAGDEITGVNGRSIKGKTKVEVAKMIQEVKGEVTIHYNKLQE
Put plainly: A/G assays.
For B1, the binding result is recorded as “no binding”.

For B2, the binding result is reported as “no binding”.

On to Biotin-QATSENGHSARQHVVADTEL [CD34 C-terminal peptide AA7L, biotinylated], for which the binding result is “no binding”.

The target in the next test is T3, GST-AF6 PDZ domain fusion protein (Homo sapiens (Human), UniProt P55196 1001-1093).
T3 construct: also called af-6 protein; not shown: glutathione S-transferase encoded by vector pGEX-3X (Pharmacia)
T3 sequence: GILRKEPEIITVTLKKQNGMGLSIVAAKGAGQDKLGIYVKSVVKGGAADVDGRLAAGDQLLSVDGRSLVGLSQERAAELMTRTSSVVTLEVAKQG
Put plainly: A/G assays.
For the molecule B1, the binding result is “no binding”.

Turning to B2, the binding result is listed as “no binding”.

In the case of Biotin-QATSENGHSARQHVVADTEL [CD34 C-terminal peptide AA7L, biotinylated], the binding result is listed as “no binding”.

The next test deals with T4, SP short PDZ-GST fusion protein (Homo sapiens (Human), UniProt O43464 350-435).
T4 construct: The label SP short is not explained in the excerpts
T4 sequence: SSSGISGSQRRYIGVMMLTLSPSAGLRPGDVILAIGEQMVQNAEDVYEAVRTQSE
Put plainly: A/G assays.
Consider B1, for which the binding result is listed as “no binding”.

Consider B2, for which the binding result is listed as “no binding”.

In the case of Biotin-QATSENGHSARQHVVADTEL [CD34 C-terminal peptide AA7L, biotinylated], the binding result was “no binding”.

A further test deals with T5, GST-TAX-IP43 PDZ domain fusion protein (human, UniProt Q13884 109-180).
T5 construct: also called TAX43; not shown: glutathione S-transferase encoded by vector pGEX-3X (Pharmacia)
T5 sequence: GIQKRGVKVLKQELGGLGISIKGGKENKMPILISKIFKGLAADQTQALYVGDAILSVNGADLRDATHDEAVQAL
The test is described as follows: A/G assays.
As for B1, the binding result is “no binding”.

As for B2, the binding result was “no binding”.

Consider Biotin-QATSENGHSARQHVVADTEL [CD34 C-terminal peptide AA7L, biotinylated], for which the binding result is listed as “no binding”.

The target of the next test is T6, GST-DLG5 (p-dlg) PDZ domain fusion protein (Human, UniProt Q8TDM6 1343-1583).
T6 construct: also called Human discs large protein p-dlg; not shown: glutathione S-transferase encoded by vector pGEX-3X (Pharmacia)
T6 sequence: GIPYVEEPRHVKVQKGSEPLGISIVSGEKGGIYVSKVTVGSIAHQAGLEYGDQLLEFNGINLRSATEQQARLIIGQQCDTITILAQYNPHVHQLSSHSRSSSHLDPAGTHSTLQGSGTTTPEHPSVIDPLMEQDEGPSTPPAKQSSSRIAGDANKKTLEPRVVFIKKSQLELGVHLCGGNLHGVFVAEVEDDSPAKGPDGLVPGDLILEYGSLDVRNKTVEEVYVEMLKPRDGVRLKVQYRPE
Put plainly: A/G assays.
Regarding B1, the binding result was “no binding”.

Consider B2, for which the binding result is reported as “no binding”.

Take Biotin-QATSENGHSARQHVVADTEL [CD34 C-terminal peptide AA7L, biotinylated]: the binding result is given as “no binding”.

The next test concerns the target T7, GST-prIL16 fusion protein (PDZ domains 1-2) (Homo sapiens (Human), UniProt Q14005 1111-1324).
T7 construct: also called putative interleukin 16 precursor; not shown: glutathione S-transferase encoded by vector pGEX-3X (Pharmacia)
T7 sequence: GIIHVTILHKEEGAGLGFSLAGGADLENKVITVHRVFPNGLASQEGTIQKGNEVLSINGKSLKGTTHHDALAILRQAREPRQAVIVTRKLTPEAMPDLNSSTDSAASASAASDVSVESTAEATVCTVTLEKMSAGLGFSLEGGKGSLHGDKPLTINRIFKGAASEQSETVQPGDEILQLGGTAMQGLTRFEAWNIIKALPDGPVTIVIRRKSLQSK
The test is described as follows: A/G assays.
Consider B1, for which the binding result is given as “no binding”.

B2: the binding result is on record as “no binding”.

As for Biotin-QATSENGHSARQHVVADTEL [CD34 C-terminal peptide AA7L, biotinylated], the binding result is given as “no binding”.

A further test addresses T8, GST-DVL1 PDZ domain fusion protein (human, UniProt O14640 247-339).
T8 construct: also called human dishevelled segment polarity protein homolog; not shown: glutathione S-transferase encoded by vector pGEX-3X (Pharmacia)
T8 sequence: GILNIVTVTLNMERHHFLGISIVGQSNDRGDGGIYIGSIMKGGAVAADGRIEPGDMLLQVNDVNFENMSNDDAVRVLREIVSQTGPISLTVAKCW
Put plainly: A/G assays.
In the case of B1, the binding result is reported as “no binding”.

As for B2, the binding result was “no binding”.

With Biotin-QATSENGHSARQHVVADTEL [CD34 C-terminal peptide AA7L, biotinylated], the binding result is recorded as “no binding”.

In another test the target is T9, GST-TAX-IP2 PDZ domain fusion protein (human, UniProt O14908 129-216).
T9 construct: also called TAX-1P2; TAX2; not shown: glutathione S-transferase encoded by vector pGEX-3X (Pharmacia)
T9 chain: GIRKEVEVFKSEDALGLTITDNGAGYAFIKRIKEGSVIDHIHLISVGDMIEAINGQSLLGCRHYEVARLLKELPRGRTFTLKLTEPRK
Put plainly: A/G assays.
As for B1, the binding result is “no binding”.

For B2, the binding result is given as “no binding”.

As for Biotin-QATSENGHSARQHVVADTEL [CD34 C-terminal peptide AA7L, biotinylated], the binding result is reported as “no binding”.

The target of a further test is T10, K858 PDZ-GST fusion protein (Homo sapiens (Human), UniProt Q8WWI1 1038-1131).
T10 construct: Order of GST and PDZ part and limits not seen in the excerpts
T10 sequence: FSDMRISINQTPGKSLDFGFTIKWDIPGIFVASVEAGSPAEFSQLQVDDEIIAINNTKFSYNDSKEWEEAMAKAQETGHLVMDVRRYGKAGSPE
Put plainly: A/G assays.
For the molecule B1, the binding result is listed as “no binding”.

As to B2, the binding result is reported as “no binding”.

Consider Biotin-QATSENGHSARQHVVADTEL [CD34 C-terminal peptide AA7L, biotinylated], for which the binding result is on record as “no binding”.

A further test deals with T11, GST-KIAA0303 PDZ domain fusion protein (Homo sapiens (Human), UniProt O15021 1138-1228).
T11 construct: also called K303; not shown: glutathione S-transferase encoded by vector pGEX-3X (Pharmacia)
T11 sequence: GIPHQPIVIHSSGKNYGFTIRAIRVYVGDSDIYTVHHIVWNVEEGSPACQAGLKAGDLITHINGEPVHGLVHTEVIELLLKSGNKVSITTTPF
The test is described as follows: A/G assays.
As to B1, the binding result is on record as “no binding”.

For the molecule B2, the binding result is recorded as “no binding”.

As for Biotin-QATSENGHSARQHVVADTEL [CD34 C-terminal peptide AA7L, biotinylated], the binding result is given as “no binding”.

The target in another test is T12, K316 PDZ-GST fusion protein (Homo sapiens (Human), UniProt Q14CM0 72-159).
T12 construct: Order of GST and PDZ part and limits not seen in the excerpts
T12 sequence (Q14CM0 72-159 limits assumed): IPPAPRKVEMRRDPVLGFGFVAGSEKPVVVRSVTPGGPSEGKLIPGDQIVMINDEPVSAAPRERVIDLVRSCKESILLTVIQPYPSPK
The test is described as follows: A/G assays.
As for B1, the binding result was “no binding”.

With B2, the binding result is given as “no binding”.

On to Biotin-QATSENGHSARQHVVADTEL [CD34 C-terminal peptide AA7L, biotinylated], for which the binding result is reported as “no binding”.

Another test concerns the target T13, GEF PDZ-GST fusion protein (Homo sapiens (Human), UniProt Q8TEU7 293-400).
T13 construct: The label GEF is not explained in the excerpts
T13 sequence: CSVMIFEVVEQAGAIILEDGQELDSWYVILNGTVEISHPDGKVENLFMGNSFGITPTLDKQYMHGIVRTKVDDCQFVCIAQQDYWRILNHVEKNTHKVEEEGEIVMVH
The test is described as follows: A/G assays.
Consider B1, for which the binding result is on record as “no binding”.

Regarding B2, the binding result is on record as “no binding”.

Take Biotin-QATSENGHSARQHVVADTEL [CD34 C-terminal peptide AA7L, biotinylated]: the binding result is recorded as “no binding”.

Another test concerns the target T14, GST-TIAM1 PDZ domain fusion protein (Homo sapiens (Human), UniProt Q13009 845-931).
T14 construct: also called TLAM1; T-lymphoma invasion and metastasis inducing protein 1; not shown: glutathione S-transferase encoded by vector pGEX-3X (Pharmacia)
Put plainly: A/G assays.
For B1, the binding result is “no binding”.

As for B2, the binding result is “no binding”.

As for Biotin-QATSENGHSARQHVVADTEL [CD34 C-terminal peptide AA7L, biotinylated], the binding result was “no binding”.

A further test concerns the target T15, TAX-IP33 PDZ-GST fusion protein (Homo sapiens (Human), UniProt O14910 103-193).
T15 construct: Order of GST and PDZ part and limits not seen in the excerpts
T15 sequence: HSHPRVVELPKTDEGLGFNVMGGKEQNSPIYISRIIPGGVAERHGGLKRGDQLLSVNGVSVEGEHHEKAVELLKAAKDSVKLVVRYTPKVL
The test is described as follows: A/G assays.
Regarding B1, the binding result is given as “no binding”.

As for B2, the binding result is given as “no binding”.

Regarding Biotin-QATSENGHSARQHVVADTEL [CD34 C-terminal peptide AA7L, biotinylated], the binding result is on record as “no binding”.

For a further test, the target named is T16, TAX-IP2L PDZ-GST fusion protein (Homo sapiens (Human), UniProt Q8TF64 107-197).
T16 construct: Order of GST and PDZ part and limits not seen in the excerpts
T16 sequence: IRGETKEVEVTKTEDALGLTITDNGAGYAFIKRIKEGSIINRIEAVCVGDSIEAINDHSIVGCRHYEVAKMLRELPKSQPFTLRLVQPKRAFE
The test is described as follows: A/G assays.
Regarding B1, the binding result is “no binding”.

On to B2, for which the binding result was “no binding”.

In the case of Biotin-QATSENGHSARQHVVADTEL [CD34 C-terminal peptide AA7L, biotinylated], the binding result is reported as “no binding”.
